In patent US20230250154A1 (CYTONICS, published 2023):

B1: Variant A2M, bait region SEQ ID NO 13 (other)
chain: SVSGKPQYMVLVPSLLHTETTEKGCVLLSYLNETVTVSASLESVRGNRSLFTDLEAENDVLHCVAFAVPKSSSNEEVMFLTVQVKGPTQEFKKRTTVMVKNEDSLVFVQTDKSIYKPGQTVKFRVVSMDENFHPLNELIPLVYIQDPKGNRIAQWQSFQLEGGLKQFSFPLSSEPFQGSYKVVVQKKSGGRTEHPFTVEEFVLPKFEVQVTVPKIITILEEEMNVSVCGLYTYGKPVPGHVTVSICRKYSDASDCHGEDSQAFCEKFSGQLNSHGCFYQQVKTKVFQLKRKEYEMKLHTEAQIQEEGTVVELTGRQSSEITRTITKLSFVKVDSHFRQGIPFFGQVRLVDGKGVPIPNKVIFIRGNEANYYSNATTDEHGLVQFSINTTNVMGTSLTVRVNYKDRSPCYGYQWVSEEHEEAHHTAYLVFSPSKSFVHLEPMSHELPCGHTQTVQAHYILNGGTLLGLKKLSFYYLIMAKGGIVRTGTHGLLVKQEDMKGHFSISIPVKSDIAPVARLLIYAVLPTGDVIGDSAKYDVENCLANKVDLSFSPSQSLPASHAHLRVTAAPQSVCALRAVDQSVLLMKPDAELSASSVYNLLPEKDLTGFPGPLNDQDDEDCINRHNVYINGITYTPVSSTNEKDMYSFLEDMGLKAFTNSKIRKPKMCPQLEHGPRYLTAEGEGEGIPENFFGVSEDLVVQISELEGRGSVEEPHTKLRKYFPETWIWDLVVVNSAGVAEVGVTVPDTITEWKAGAFCLSEDAGLGISSTASLRAFQPFFVELTMPYSVIRGEAFTLKATVLNYLPKCIRVSVQLEASPAFLAVPVEKEQAPHCICANGRQTVSWAVTPKSLGNVNFTVSAEALESQELCGTEVPSVPEHGRKDTVIKPLLVEPEGLEKETTFNSLLCPSGGEVSEELSLKLPPNVVEESARASVSVLGDILGSAMQNTQNLLQMPYGCGEQNMVLFAPNIYVLDYLNETQQLTPEIKSKAIGYLNTGYQRQLNYKHYDGSYSTFGERYGRNQGNTWLTAFVLKTFAQARAYIFIDEAHITQALIWLSQRQKDNGCFRSSGSLLNNAIKGGVEDEVTLSAYITIALLEIPLTVTHPVVRNALFCLESAWKTAQEGDHGSHVYTKALLAYAFALAGNQDKRKEVLKSLNEEAVKKDNSVHWERPQKPKAPVGHFYEPQAPSAEVEMTSYVLLAYLTAQPAPTSEDLTSATNIVKWITKQQNAQGGFSSTQDTVVALHALSKYGAATFTRTGKAAQVTIQSSGTFSSKFQVDNNNRLLLQQVSLPELPGEYSMKVTGEGCVYLQTSLKYNILPEKEEFPFALGVQTLPQTCDEPKAHTSFQISLSVSYTGSRSASNMAIVDVKMVSGFIPLKPTVKMLERSNHVSRTEVSSNHVLIYLDKVSNQTLSLFFTVLQDVPVRDLKPAIVKVYDYYETDEFAIAEYNAPCSKDLGNADYKDDDDKGASHHHHHH
B2: Variant A2M, bait region SEQ ID NO 14 (other)
chain: SVSGKPQYMVLVPSLLHTETTEKGCVLLSYLNETVTVSASLESVRGNRSLFTDLEAENDVLHCVAFAVPKSSSNEEVMFLTVQVKGPTQEFKKRTTVMVKNEDSLVFVQTDKSIYKPGQTVKFRVVSMDENFHPLNELIPLVYIQDPKGNRIAQWQSFQLEGGLKQFSFPLSSEPFQGSYKVVVQKKSGGRTEHPFTVEEFVLPKFEVQVTVPKIITILEEEMNVSVCGLYTYGKPVPGHVTVSICRKYSDASDCHGEDSQAFCEKFSGQLNSHGCFYQQVKTKVFQLKRKEYEMKLHTEAQIQEEGTVVELTGRQSSEITRTITKLSFVKVDSHFRQGIPFFGQVRLVDGKGVPIPNKVIFIRGNEANYYSNATTDEHGLVQFSINTTNVMGTSLTVRVNYKDRSPCYGYQWVSEEHEEAHHTAYLVFSPSKSFVHLEPMSHELPCGHTQTVQAHYILNGGTLLGLKKLSFYYLIMAKGGIVRTGTHGLLVKQEDMKGHFSISIPVKSDIAPVARLLIYAVLPTGDVIGDSAKYDVENCLANKVDLSFSPSQSLPASHAHLRVTAAPQSVCALRAVDQSVLLMKPDAELSASSVYNLLPEKDLTGFPGPLNDQDDEDCINRHNVYINGITYTPVSSTNEKDMYSFLEDMGLKAFTNSKIRKPKMCPQLEHGPEGEGEGEGIPRYLTAENFFGVSEDLVVQISELEGRGSVEEPHTKLRKYFPETWIWDLVVVNSAGVAEVGVTVPDTITEWKAGAFCLSEDAGLGISSTASLRAFQPFFVELTMPYSVIRGEAFTLKATVLNYLPKCIRVSVQLEASPAFLAVPVEKEQAPHCICANGRQTVSWAVTPKSLGNVNFTVSAEALESQELCGTEVPSVPEHGRKDTVIKPLLVEPEGLEKETTFNSLLCPSGGEVSEELSLKLPPNVVEESARASVSVLGDILGSAMQNTQNLLQMPYGCGEQNMVLFAPNIYVLDYLNETQQLTPEIKSKAIGYLNTGYQRQLNYKHYDGSYSTFGERYGRNQGNTWLTAFVLKTFAQARAYIFIDEAHITQALIWLSQRQKDNGCFRSSGSLLNNAIKGGVEDEVTLSAYITIALLEIPLTVTHPVVRNALFCLESAWKTAQEGDHGSHVYTKALLAYAFALAGNQDKRKEVLKSLNEEAVKKDNSVHWERPQKPKAPVGHFYEPQAPSAEVEMTSYVLLAYLTAQPAPTSEDLTSATNIVKWITKQQNAQGGFSSTQDTVVALHALSKYGAATFTRTGKAAQVTIQSSGTFSSKFQVDNNNRLLLQQVSLPELPGEYSMKVTGEGCVYLQTSLKYNILPEKEEFPFALGVQTLPQTCDEPKAHTSFQISLSVSYTGSRSASNMAIVDVKMVSGFIPLKPTVKMLERSNHVSRTEVSSNHVLIYLDKVSNQTLSLFFTVLQDVPVRDLKPAIVKVYDYYETDEFAIAEYNAPCSKDLGNADYKDDDDKGASHHHHHH

Columns and labels:
Assay in all cases: cell-based or functional assay
Elastase = molecular target: Elastase
ADAMTS5 = molecular target: T1, ADAMTS5 (human, UniProt Q9UNA0 262-622, limits assumed)
T1 sequence (looked up): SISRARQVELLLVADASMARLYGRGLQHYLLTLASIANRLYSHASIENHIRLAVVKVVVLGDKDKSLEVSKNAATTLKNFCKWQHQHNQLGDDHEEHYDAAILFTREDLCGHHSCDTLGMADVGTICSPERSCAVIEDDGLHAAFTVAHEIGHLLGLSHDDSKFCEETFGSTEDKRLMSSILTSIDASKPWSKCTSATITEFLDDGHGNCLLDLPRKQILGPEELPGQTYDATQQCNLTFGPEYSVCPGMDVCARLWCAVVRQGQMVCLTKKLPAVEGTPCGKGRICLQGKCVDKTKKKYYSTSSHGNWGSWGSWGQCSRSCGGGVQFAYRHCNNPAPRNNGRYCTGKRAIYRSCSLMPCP

MMP7 = molecular target: T2, MMP7 (UniProt P09237 95-267, limits assumed)
T2 sequence (looked up): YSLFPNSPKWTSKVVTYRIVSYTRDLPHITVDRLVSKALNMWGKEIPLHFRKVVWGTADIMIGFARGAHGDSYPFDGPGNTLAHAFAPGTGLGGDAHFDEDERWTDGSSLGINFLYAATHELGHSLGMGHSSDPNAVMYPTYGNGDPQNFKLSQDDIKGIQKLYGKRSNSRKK

MMP1 = molecular target: T3, MMP1 (human, UniProt P03956 100-469, limits assumed)
T3 sequence (looked up): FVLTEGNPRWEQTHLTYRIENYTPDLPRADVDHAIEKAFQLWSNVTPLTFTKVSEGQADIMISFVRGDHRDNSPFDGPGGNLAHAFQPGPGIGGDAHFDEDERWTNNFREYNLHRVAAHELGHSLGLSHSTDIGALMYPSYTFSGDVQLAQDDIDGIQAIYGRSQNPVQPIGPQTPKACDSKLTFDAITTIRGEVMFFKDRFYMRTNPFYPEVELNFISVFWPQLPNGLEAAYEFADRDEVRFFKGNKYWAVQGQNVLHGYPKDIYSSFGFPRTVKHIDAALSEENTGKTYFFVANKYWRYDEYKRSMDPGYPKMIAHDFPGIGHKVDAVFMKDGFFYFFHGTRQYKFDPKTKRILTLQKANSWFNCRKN

ADAMTS4 = molecular target: T4, ADAMTS4 (human, UniProt O75173 213-685, limits assumed)
T4 sequence (looked up): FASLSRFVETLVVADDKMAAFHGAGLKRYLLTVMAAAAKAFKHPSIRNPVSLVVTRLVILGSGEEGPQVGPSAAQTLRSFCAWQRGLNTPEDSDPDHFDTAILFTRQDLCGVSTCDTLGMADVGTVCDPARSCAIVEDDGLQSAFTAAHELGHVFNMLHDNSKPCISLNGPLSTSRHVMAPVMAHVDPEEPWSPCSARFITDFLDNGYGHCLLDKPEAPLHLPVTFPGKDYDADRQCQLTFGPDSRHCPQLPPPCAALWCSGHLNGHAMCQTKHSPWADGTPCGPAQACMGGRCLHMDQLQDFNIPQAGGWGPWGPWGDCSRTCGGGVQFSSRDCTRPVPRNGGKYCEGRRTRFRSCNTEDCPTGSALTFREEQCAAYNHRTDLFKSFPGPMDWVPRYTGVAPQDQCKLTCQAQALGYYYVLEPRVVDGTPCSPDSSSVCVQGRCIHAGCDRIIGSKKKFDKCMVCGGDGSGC

MMP9 = MMP9 (human, UniProt P14780 107-707, limits assumed)
MMP13 = MMP13 (human, UniProt P45452 104-471, limits assumed)
MMP8 = MMP8 (human, UniProt P22894 101-467, limits assumed)
MMP2 = molecular target: T5, MMP2 (human, UniProt P08253 110-660, limits assumed)
T5 sequence (looked up): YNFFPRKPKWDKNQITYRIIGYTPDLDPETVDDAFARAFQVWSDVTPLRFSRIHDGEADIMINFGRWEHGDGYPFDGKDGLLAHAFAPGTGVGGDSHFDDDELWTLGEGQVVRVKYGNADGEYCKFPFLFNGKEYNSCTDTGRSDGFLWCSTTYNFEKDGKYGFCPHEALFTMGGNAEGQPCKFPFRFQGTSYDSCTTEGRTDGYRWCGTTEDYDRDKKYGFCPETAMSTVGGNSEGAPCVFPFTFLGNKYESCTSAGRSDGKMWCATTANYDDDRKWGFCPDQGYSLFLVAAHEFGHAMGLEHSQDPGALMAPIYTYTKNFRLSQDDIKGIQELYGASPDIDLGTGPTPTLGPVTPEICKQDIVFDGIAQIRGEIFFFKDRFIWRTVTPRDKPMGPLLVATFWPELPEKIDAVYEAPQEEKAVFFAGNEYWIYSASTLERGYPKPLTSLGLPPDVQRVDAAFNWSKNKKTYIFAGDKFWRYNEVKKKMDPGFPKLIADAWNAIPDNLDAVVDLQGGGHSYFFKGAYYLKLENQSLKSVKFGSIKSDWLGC

Cathepsin G = molecular target: T6, Cathepsin G (UniProt P08311 21-244)
T6 sequence (looked up): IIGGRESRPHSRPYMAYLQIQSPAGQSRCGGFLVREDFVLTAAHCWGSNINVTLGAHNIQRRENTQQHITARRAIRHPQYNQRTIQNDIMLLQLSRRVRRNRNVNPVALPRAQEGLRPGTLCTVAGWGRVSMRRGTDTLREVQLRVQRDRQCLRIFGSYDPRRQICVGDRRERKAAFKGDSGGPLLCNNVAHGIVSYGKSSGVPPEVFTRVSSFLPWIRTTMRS

MMP3 = MMP3 (human, UniProt P08254 100-477, limits assumed)
Sequence of MMP3 (P08254 100-477 limits assumed): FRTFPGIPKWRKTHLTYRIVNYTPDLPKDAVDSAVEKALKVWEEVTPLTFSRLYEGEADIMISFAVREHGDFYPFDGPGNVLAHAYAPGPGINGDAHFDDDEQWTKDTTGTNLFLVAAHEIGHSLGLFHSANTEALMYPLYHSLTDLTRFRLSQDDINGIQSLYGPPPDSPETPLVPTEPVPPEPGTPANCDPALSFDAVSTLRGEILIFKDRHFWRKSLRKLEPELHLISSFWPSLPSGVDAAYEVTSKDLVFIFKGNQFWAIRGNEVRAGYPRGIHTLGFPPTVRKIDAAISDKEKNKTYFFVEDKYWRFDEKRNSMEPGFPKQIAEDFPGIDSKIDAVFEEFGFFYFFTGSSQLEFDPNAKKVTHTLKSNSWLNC

Sequence of MMP9 (P14780 107-707 limits assumed): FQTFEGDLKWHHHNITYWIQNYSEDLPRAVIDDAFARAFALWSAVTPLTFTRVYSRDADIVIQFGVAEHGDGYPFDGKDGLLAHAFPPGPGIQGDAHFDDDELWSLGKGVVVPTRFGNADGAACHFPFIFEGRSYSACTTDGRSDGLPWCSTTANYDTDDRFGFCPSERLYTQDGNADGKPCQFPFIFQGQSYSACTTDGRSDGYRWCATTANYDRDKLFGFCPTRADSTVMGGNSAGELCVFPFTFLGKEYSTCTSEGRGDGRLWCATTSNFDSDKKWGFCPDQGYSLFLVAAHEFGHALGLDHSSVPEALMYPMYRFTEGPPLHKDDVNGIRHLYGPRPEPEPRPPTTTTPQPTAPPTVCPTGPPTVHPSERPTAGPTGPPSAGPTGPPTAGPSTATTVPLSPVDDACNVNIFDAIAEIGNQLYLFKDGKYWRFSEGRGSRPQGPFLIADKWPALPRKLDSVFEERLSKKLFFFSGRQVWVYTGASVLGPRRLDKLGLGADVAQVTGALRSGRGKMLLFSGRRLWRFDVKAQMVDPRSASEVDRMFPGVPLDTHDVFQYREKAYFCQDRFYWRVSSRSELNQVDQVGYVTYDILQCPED
Sequence of MMP8 (P22894 101-467 limits assumed): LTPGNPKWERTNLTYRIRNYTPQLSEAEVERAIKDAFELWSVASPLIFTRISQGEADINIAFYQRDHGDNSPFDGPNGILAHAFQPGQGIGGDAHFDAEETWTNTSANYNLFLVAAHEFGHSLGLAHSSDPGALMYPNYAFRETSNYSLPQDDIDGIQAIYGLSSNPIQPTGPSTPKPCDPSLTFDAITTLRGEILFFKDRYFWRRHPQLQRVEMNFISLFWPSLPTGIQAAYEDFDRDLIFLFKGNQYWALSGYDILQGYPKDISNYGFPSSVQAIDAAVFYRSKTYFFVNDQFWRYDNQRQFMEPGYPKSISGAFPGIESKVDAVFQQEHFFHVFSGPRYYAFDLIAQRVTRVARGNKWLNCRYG

Binder	Protease Inhibition (% of WT) (Elastase)	Protease Inhibition (% of WT) (ADAMTS5)	Protease Inhibition (% of WT) (MMP7)	Protease Inhibition (% of WT) (MMP1)	Protease Inhibition (% of WT) (ADAMTS4)	Protease Inhibition (% of WT) (MMP9)	Protease Inhibition (% of WT) (MMP13)	Protease Inhibition (% of WT) (MMP8)	Protease Inhibition (% of WT) (MMP2)	Protease Inhibition (% of WT) (Cathepsin G)	Protease Inhibition (% of WT) (MMP3)
B1	97 % of WT	194 % of WT	128 % of WT	91 % of WT	290 % of WT	71 % of WT	76 % of WT	81 % of WT	65 % of WT	54 % of WT	189 % of WT
B2	67 % of WT	105 % of WT	61 % of WT	60 % of WT	236 % of WT	14 % of WT	66 % of WT	39 % of WT	10 % of WT	99 % of WT	169 % of WT
